In article doi:10.1101/2020.04.09.034405:

Experiments:
[1] = target: EPHA2 fused to a fluorescent protein for FRET (EPHA2-mRuby3; EPHA2-mClover3) (human) (UniProt P29317); assay: FRET or BRET
[2] = target: ROBO1 fused to a fluorescent protein for FRET (ROBO1-mClover3) (human) (UniProt Q9Y6N7); assay: FRET or BRET
Chain of UniProt Q9Y6N7 (Q9Y6N7 26-1651): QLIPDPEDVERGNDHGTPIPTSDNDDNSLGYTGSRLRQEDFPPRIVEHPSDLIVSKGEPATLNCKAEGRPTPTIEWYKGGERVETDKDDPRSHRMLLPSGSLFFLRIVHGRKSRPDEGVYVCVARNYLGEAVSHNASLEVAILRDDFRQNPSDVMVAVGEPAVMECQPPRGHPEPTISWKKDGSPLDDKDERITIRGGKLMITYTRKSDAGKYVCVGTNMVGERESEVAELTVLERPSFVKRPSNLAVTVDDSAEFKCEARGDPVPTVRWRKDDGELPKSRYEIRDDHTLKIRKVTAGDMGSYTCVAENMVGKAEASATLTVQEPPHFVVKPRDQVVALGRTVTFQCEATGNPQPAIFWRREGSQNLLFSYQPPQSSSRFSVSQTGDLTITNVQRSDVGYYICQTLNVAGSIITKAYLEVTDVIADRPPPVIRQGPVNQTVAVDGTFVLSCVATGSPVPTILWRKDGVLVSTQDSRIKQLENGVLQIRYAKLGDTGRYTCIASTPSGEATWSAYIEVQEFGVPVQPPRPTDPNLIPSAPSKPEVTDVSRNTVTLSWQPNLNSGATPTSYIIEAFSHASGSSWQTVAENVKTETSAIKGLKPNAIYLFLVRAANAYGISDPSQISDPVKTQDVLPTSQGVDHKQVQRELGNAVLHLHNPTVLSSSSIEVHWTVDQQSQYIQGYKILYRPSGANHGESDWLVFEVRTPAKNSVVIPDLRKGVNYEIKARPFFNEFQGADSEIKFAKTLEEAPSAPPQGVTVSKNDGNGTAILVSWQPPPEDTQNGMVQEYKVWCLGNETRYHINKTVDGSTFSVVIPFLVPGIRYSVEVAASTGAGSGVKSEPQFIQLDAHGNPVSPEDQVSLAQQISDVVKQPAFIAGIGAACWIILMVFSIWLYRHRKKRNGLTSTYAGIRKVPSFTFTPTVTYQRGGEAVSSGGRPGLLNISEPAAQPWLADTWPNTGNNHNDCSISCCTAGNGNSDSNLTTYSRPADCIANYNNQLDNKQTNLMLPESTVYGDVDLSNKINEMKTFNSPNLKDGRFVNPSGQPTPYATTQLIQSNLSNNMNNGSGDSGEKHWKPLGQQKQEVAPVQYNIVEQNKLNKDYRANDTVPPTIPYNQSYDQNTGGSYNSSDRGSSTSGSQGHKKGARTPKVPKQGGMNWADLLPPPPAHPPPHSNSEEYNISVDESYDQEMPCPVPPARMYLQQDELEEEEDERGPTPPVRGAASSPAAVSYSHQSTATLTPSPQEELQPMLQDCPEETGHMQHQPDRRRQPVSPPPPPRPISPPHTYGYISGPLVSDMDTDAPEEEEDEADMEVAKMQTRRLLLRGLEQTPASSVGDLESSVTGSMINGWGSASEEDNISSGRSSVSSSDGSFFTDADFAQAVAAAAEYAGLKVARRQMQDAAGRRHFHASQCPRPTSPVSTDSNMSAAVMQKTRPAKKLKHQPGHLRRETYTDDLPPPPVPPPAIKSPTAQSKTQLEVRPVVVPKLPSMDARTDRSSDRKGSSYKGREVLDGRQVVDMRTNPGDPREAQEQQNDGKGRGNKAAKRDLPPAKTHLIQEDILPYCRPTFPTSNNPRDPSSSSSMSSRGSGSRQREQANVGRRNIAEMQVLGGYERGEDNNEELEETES

N-FRET [1]: 0.347
N-FRET [2]: 0.234
Substance: EPHA2 fused to a fluorescent protein for FRET (EPHA2-mRuby3; EPHA2-mClover3) (from UniProt P29317 24-976) (receptor)
